# Assay results reported in the supplement of paper PMC10567573.
# B1: TRPA1 addQ (peptide)
# chain: EQRNSRWNTVLRAVKAKTHHLEPQ
# B2: POLD2 addQ (peptide)
# chain: CQPISFSGFGAEDDDLGGLGLGPQ
# B3: PSMB5 addQ (peptide)
# chain: DGWIRVSSDNVADLHEKYSGSTPQ
# B4: SNF8 addQ (peptide)
# chain: LPALFTDLYSQEITAEEAREALPQ
# Test: protein stability index of a GFP-peptide fusion (GPS, HEK-293T) (PSI 1-6); higher = more stable
# Conditions: c terminus: native
# 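Also: lentivirally expressed fusion library, cells FACS-sorted into six equal-sized GFP/DsRed ratio bins, PSI computed from sequencing read fractions per bin weighted by bin number.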
protein,measurement,setting,value
B1,protein stability index,parent: NP_015628.1,4.94
B2,protein stability index,parent: NP_006221.1,2.97
B3,protein stability index,parent: NP_002788.1,3.53
B4,protein stability index,parent: NP_009172.2,5.05
